Target: FLAG tagged TSC2 (UniProt P49815)
Test: single molecule pulldown

UniProt P49815, sequence (P49815 whole entry): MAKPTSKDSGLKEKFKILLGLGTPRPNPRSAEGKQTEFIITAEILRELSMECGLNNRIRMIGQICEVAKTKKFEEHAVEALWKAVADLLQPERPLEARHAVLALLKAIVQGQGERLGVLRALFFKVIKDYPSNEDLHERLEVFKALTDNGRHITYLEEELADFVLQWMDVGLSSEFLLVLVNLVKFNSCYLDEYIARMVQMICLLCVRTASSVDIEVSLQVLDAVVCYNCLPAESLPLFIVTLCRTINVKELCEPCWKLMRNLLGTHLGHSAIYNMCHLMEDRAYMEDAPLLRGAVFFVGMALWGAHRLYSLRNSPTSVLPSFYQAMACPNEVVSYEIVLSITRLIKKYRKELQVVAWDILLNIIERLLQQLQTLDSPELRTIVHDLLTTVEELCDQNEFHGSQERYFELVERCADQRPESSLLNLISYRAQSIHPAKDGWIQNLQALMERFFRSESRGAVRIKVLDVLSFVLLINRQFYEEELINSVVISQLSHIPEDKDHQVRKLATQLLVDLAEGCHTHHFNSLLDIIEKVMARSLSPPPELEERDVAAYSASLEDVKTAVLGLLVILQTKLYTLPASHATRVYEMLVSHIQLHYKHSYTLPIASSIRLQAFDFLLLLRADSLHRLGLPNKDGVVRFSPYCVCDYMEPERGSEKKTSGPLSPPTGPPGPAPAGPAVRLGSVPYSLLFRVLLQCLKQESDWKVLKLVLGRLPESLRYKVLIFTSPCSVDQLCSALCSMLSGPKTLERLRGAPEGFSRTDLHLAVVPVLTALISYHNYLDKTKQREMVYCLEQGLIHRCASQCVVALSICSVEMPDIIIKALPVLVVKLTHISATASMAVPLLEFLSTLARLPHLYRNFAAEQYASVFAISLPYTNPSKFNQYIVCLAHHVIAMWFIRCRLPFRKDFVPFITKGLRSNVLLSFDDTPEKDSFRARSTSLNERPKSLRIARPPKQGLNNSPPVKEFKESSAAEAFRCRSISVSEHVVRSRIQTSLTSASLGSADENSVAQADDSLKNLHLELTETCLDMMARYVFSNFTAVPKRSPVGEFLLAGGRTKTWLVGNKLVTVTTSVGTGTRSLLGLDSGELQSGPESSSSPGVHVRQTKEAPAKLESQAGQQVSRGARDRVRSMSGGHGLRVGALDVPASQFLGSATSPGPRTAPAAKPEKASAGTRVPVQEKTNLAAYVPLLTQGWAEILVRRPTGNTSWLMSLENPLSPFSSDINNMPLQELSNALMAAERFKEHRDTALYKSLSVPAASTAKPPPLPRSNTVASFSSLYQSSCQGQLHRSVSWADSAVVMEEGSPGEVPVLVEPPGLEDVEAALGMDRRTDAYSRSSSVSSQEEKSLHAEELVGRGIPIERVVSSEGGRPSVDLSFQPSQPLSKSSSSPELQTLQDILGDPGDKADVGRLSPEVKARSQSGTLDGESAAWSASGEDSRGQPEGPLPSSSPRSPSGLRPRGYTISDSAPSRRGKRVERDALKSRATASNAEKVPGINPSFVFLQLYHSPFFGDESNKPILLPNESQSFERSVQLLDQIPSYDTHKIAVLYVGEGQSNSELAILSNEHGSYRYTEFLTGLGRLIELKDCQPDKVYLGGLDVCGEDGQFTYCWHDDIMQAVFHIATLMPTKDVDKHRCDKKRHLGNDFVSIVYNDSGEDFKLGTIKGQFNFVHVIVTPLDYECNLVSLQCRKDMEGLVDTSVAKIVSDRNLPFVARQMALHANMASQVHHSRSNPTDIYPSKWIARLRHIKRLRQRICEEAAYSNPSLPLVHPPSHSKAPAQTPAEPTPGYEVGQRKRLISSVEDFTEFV

“recombinant α-syn PFF (from UniProt P37840 1-140) (natural protein)” was tested, and the IC50 was 0.5 nM.
